Laboratory results reported in paper PMC3916239, “Distinct DNA Binding Sites Contribute to the TCF Transcriptional Switch in C. elegans and Drosophila”.
Changes are numbered by the printed parent chain.

Legend:
[1] = biological target: T1, POP-1 (Caenorhabditis elegans, UniProt Q10666 1-438); assay: EMSA; 10 mM Tris-HCl pH 7.5, 50 mM KCl, 1 mM DTT, 5 mM MgCl2, 0.05% NP-40, 50 ug/ml poly(dI-dC), glycerol; 20 ul; 5 min on ice then 25 min room temperature; 6% native gel; settings: protein: recombinant, tags: 6xHis
T1 sequence: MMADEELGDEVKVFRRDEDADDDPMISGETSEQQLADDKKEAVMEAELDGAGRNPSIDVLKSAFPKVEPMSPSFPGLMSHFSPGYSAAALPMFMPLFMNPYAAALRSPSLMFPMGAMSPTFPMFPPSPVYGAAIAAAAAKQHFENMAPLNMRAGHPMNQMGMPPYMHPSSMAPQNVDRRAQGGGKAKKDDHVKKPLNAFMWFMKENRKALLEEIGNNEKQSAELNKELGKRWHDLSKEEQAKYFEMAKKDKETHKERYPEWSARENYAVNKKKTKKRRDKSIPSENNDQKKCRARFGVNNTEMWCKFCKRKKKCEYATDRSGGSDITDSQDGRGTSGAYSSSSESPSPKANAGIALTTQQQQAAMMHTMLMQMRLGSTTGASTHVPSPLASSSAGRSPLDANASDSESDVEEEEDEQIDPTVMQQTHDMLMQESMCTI

[2] = biological target: T1, POP-1; assay: competition; no competition at 200-fold excess; 10 mM Tris-HCl pH 7.5, 50 mM KCl, 1 mM DTT, 5 mM MgCl2, 0.05% NP-40, 50 ug/ml poly(dI-dC), glycerol; 20 ul; 5 min on ice then 25 min room temperature; 6% native gel; settings: protein: recombinant; tags: 6xHis

B1: R05G6.5 probe (dsDNA)
DNA 1: CGGTCGCCGCGCCAATGTGCTTGCCTTTGAACTCTCAATTTGCTGTTGTGGCGTGAT
DNA 2: ATCACGCCACAACAGCAAATTGAGAGTTCAAAGGCAAGCACATTGGCGCGGCGACCG
binding result ([1]; label: biotin): no binding

B2: ceh-22b WRE WT probe 69 bp (dsDNA)
DNA 1: TACGAGAAGCGGCGATTCAAGAGTTTCAAATAACTTCTCCACCGCCTTTTGAAGTTGCCGAAAATAGTT
DNA 2: AACTATTTTCGGCAACTTCAAAAGGCGGTGGAGAAGTTATTTGAAACTCTTGAATCGCCGCTTCTCGTA
binding result ([1]; label: biotin (labeled probe)): binds

B3: K08D12.3 long WT probe (dsDNA)
DNA 1: CTGGCACGCGGCCAACATTCGATTTTGGGACGATCGACACGTTCTGGCCACATTTTCTTTGATTTTTTCTGATTTCGCCGACTTTTTTC
DNA 2: GAAAAAAGTCGGCGAAATCAGAAAAAATCAAAGAAAATGTGGCCAGAACGTGTCGATCGTCCCAAAATCGAATGTTGGCCGCGTGCCAG
binding result ([1]; label: biotin (labeled probe)): binds

B4: K08D12.3 Helper3 mutant (dsDNA)
DNA 1: B3 DNA 1 with G77T, C78A, C79A, G80T, A81C, C82A, T83G
DNA 2: B3 DNA 2 with A7C, G8T, T9G, C10A, G11T, G12T, C13A
binding result [2]: no binding

B5: K08D12.3 HMG mutant (dsDNA)
DNA 1: B3 DNA 1 with T59G, A62C, T63G
DNA 2: B3 DNA 2 with A27C, T28G, A31C
binding result [2]: no binding

B6: Y66D12A.9 probe (dsDNA)
DNA 1: TTGGCGCCGAGCACATATTTCCCATCGGAAGCTTTGAAATAGTCGAGCCCGCGGCCACTT
DNA 2: AAGTGGCCGCGGGCTCGACTATTTCAAAGCTTCCGATGGGAAATATGTGCTCGGCGCCAA
binding result ([1]; label: biotin): no binding

B7: psa-3 WRE WT probe 47 bp (dsDNA)
DNA 1: ACCGTTATGGCCGTGGAGGCTCTTTTGATGTGCAGCCGACAAGTACG
DNA 2: CGTACTTGTCGGCTGCACATCAAAAGAGCCTCCACGGCCATAACGGT
binding result ([1]; label: biotin (labeled probe)): binds
